PMC10698284, “SLC3A2 N-glycosylation and Golgi remodeling regulate SLC7A amino acid exchangers and stress mitigation” (The Journal of Biological Chemistry, 2023)

T1: FLAG-SLC3A2 N381D (human, UniProt P08195-1 66-630, N381D, N-glycosylated; N-glycosylation site N381 deleted)
T1 construct: SLC3A2 (4F2hc, CD98), human, cDNA encoding amino acids 66 to 630 of isoform P08195-1, with N381D; also called N381D site variant; source: HeLa Flp-In T-REx SLC3A2 KO cells, dox-induced from the Flp-In site; in lysate (AP-MS) or on the cell surface, then lysed (Gal3 co-IP); not shown: FLAG, N-terminal, kept
T1 sequence (looked up): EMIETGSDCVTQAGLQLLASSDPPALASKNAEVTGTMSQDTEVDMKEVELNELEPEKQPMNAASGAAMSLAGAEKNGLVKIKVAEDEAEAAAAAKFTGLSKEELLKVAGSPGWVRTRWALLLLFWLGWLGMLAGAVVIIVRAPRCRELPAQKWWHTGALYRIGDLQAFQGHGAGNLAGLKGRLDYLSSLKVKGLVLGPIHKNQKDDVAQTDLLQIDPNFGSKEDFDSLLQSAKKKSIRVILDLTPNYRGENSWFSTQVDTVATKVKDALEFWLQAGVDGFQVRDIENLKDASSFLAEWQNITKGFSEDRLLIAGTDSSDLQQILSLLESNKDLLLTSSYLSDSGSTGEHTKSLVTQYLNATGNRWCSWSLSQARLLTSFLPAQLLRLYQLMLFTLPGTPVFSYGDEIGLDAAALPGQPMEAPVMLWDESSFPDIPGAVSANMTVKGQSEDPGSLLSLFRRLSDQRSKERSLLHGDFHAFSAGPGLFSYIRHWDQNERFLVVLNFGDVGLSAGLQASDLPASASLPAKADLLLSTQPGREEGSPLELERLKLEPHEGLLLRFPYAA

T2: FLAG-SLC3A2 N365D (human, UniProt P08195-1 66-630, N365D, N-glycosylated; N-glycosylation site N365 deleted)
T2 construct: SLC3A2 (4F2hc, CD98), human, cDNA encoding amino acids 66 to 630 of isoform P08195-1, with N365D; also called N365D site variant; source: HeLa Flp-In T-REx SLC3A2 KO cells, dox-induced from the Flp-In site; in lysate (AP-MS) or on the cell surface, then lysed (Gal3 co-IP); not shown: FLAG, N-terminal, kept
T2 sequence (looked up): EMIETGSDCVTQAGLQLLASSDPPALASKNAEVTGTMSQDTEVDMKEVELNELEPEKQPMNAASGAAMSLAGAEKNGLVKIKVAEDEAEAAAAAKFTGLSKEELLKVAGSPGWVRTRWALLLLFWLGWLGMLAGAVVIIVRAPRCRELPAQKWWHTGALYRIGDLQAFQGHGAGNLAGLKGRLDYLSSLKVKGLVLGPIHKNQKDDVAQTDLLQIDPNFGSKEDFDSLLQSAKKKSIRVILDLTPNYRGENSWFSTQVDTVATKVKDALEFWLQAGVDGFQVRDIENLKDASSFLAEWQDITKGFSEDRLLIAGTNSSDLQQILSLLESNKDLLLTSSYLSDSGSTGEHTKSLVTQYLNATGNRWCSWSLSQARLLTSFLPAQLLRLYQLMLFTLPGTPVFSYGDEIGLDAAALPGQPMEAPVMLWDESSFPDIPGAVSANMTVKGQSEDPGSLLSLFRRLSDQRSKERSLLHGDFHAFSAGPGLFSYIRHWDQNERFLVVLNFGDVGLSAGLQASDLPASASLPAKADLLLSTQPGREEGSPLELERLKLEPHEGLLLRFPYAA


Assays:
FLAG-SLC3A2 N381D = target: T1, FLAG-SLC3A2 N381D; experiment: affinity purification with mass spectrometry; anti-FLAG M2 agarose, 4 h at 4 °C, 1 mg lysate (0.5% NP40, 50 mM HEPES pH 8.0, 100 mM KCl, 1 mM EDTA, 10% glycerol) of HeLa Flp-In T-REx SLC3A2 KO cells with dox-induced FLAG-SLC3A2 WTseq or site variants; on-bead trypsin digest, DDA and SWATH; control: dox-treated SLC3A2 KO cells; in some samples 10 μM fluvastatin or 250 ng/ml swainsonine for the final 24 h; conditions: partners not purified
FLAG-SLC3A2 N365D = target: T2, FLAG-SLC3A2 N365D; experiment: as above; conditions: partners not purified

Chain of SLC7A5 (Q01650 whole entry): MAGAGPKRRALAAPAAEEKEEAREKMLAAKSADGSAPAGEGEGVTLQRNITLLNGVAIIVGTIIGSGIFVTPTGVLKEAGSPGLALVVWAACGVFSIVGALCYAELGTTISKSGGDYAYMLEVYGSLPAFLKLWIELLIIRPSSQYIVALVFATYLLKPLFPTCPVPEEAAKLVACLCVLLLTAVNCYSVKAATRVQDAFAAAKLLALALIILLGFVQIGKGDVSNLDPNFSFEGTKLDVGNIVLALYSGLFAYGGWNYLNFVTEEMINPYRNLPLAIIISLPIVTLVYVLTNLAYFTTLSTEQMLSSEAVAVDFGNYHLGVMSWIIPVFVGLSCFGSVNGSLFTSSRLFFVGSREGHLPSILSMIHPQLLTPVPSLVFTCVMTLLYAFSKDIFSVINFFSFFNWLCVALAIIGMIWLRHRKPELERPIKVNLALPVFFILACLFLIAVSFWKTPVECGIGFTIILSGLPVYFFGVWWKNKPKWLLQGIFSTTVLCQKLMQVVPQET

percent decrease of the interaction against WTseq (FLAG-SLC3A2 N381D) [%]	percent decrease of the interaction against WTseq (FLAG-SLC3A2 N365D) [%]	Binder
44 ± 14	44 ± 14	SLC7A5 (natural protein, SLC7A5, human, endogenous in HeLa cells, found by its tryptic peptides; Forms a disulfide-linked heterodimer with SLC3A2; also called SLC7A5 exchanger; source: endogenous, HeLa lysate) not shown
67 ± 15	67 ± 15	SLC7A11 (natural protein, human (endogenous in HeLa), UniProt Q9UPY5 1-501, looked up, SLC7A11, human, endogenous in HeLa cells, found by its tryptic peptides; Forms a disulfide-linked heterodimer with SLC3A2; source: endogenous, HeLa lysate) MVRKPVVSTISKGGYLQGNVNGRLPSLGNKEPPGQEKVQLKRKVTLLRGVSIIIGTIIGAGIFISPKGVLQNTGSVGMSLTIWTVCGVLSLFGALSYAELGTTIKKSGGHYTYILEVFGPLPAFVRVWVELLIIRPAATAVISLAFGRYILEPFFIQCEIPELAIKLITAVGITVVMVLNSMSVSWSARIQIFLTFCKLTAILIIIVPGVMQLIKGQTQNFKDAFSGRDSSITRLPLAFYYGMYAYAGWFYLNFVTEEVENPEKTIPLAICISMAIVTIGYVLTNVAYFTTINAEELLLSNAVAVTFSERLLGNFSLAVPIFVALSCFGSMNGGVFAVSRLFYVASREGHLPEILSMIHVRKHTPLPAVIVLHPLTMIMLFSGDLDSLLNFLSFARWLFIGLAVAGLIYLRYKCPDMHRPFKVPLFIPALFSFTCLFMVALSLYSDPFSTGIGFVITLTGVPAYYLFIIWDKKPRWFRIMSEKITRTLQIILEVVPEEDKL
